The record followed here is paper PMC7367873, “Dissecting the sequence determinants for dephosphorylation by the catalytic subunits of phosphatases PP1 and PP2A” (Nature Communications, 2020).

Assay [1] concerns GFP-14-3-3β and its binding proteins. Kind of assay: GFP-14-3-3β co-IP with LC-MS/MS label-free quantification, untreated versus PP1c-treated. As to conditions: pairwise comparison PP1 vs untreated, 3 replicates each. More on the design: species or system human.
The next assay has as its system GFP-14-3-3β. The experiment in a line: GFP-14-3-3β co-IP with LC-MS/MS, untreated GFP-14-3-3β versus GFP control (14-3-3 interactome). Format: binding, human. As to conditions: 3 replicates each.
Where [2] appears, read: student's t-test, LC-MS/MS label-free quantification.
The mark [3] stands for this setting: pairwise comparison untreated GFP-14-3-3β vs GFP, student's t-test, LC-MS/MS label-free quantification.

B1: THRAP3 (protein, UniProt Q9Y2W1 2-955, looked up)
Thyroid hormone …: SKTNKSKSGSRSSRSRSASRSRSRSFSKSRSRSRSLSRSRKRRLSSRSRSRSYSPAHNRERNHPRVYQNRDFRGHNRGYRRPYYFRGRNRGFYPWGQYNRGGYGNYRSNWQNYRQAYSPRRGRSRSRSPKRRSPSPRSRSHSRNSDKSSSDRSRRSSSSRSSSNHSRVESSKRKSAKEKKSSSKDSRPSQAAGDNQGDEAKEQTFSGGTSQDTKASESSKPWPDATYGTGSASRASAVSELSPRERSPALKSPLQSVVVRRRSPRPSPVPKPSPPLSSTSQMGSTLPSGAGYQSGTHQGQFDHGSGSLSPSKKSPVGKSPPSTGSTYGSSQKEESAASGGAAYTKRYLEEQKTENGKDKEQKQTNTDKEKIKEKGSFSDTGLGDGKMKSDSFAPKTDSEKPFRGSQSPKRYKLRDDFEKKMADFHKEEMDDQDKDKAKGRKESEFDDEPKFMSKVIGANKNQEEEKSGKWEGLVYAPPGKEKQRKTEELEEESFPERSKKEDRGKRSEGGHRGFVPEKNFRVTAYKAVQEKSSSPPPRKTSESRDKLGAKGDFPTGKSSFSITREAQVNVRMDSFDEDLARPSGLLAQERKLCRDLVHSNKKEQEFRSIFQHIQSAQSQRSPSELFAQHIVTIVHHVKEHHFGSSGMTLHERFTKYLKRGTEQEAAKNKKSPEIHRRIDISPSTFRKHGLAHDEMKSPREPGYKAEGKYKDDPVDLRLDIERRKKHKERDLKRGKSRESVDSRDSSHSRERSAEKTEKTHKGSKKQKKHRRARDRSRSSSSSSQSSHSYKAEEYTEETEEREESTTGFDKSRLGTKDFVGPSERGGGRARGTFQFRARGRGWGRGNYSGNNNNNSNNDFQKRNREEEWDPEYTPKSKKYYLHDDREGEGSDKWVSRGRGRGAFPRGRGRFMFRKSSTSPKWAHDKFSGEEGEIEDDESGTENREEKDNIQPTTE
As for B1, in assay [1] (setting [2]), the “Difference (log2), PP1 vs untreated” value is -2.776 log2. For the same molecule, the “Difference (log2), untreated vs GFP” value with GFP-14-3-3β (setting [3]) came to 4.049 log2.

B2: FAM53B (protein, UniProt Q14153 1-422, looked up)
Protein FAM53B: MVMVLSESLSTRGADSIACGTFSRELHTPKKMSQGPTLFSCGIMENDRWRDLDRKCPLQIDQPSTSIWECLPEKDSSLWHREAVTACAVTSLIKDLSISDHNGNPSAPPSKRQCRSLSFSDEMSSCRTSWRPLGSKVWTPVEKRRCYSGGSVQRYSNGFSTMQRSSSFSLPSRANVLSSPCDQAGLHHRFGGQPCQGVPGSAPCGQAGDTWSPDLHPVGGGRLDLQRSLSCSHEQFSFVEYCPPSANSTPASTPELARRSSGLSRSRSQPCVLNDKKVGVKRRRPEEVQEQRPSLDLAKMAQNCQTFSSLSCLSAGTEDCGPQSPFARHVSNTRAWTALLSASGPGGRTPAGTPVPEPLPPSFDDHLACQEDLSCEESDSCALDEDCGRRAEPAAAWRDRGAPGNSLCSLDGELDIEQIEKN
With B2, in assay [1] (setting [2]), the “Difference (log2), PP1 vs untreated” value is given as -3.06 log2. In addition, the “Difference (log2), untreated vs GFP” value in the assay with GFP-14-3-3β (setting [3]) is reported as 2.4159 log2.

B3: SKIV2L2 (protein, UniProt P42285 2-1042, looked up)
Exosome RNA helicase MTR4: ADAFGDELFSVFEGDSTTAAGTKKDKEKDKGKWKGPPGSADKAGKRFDGKLQSESTNNGKNKRDVDFEGTDEPIFGKKPRIEESITEDLSLADLMPRVKVQSVETVEGCTHEVALPAEEDYLPLKPRVGKAAKEYPFILDAFQREAIQCVDNNQSVLVSAHTSAGKTVCAEYAIALALREKQRVIFTSPIKALSNQKYREMYEEFQDVGLMTGDVTINPTASCLVMTTEILRSMLYRGSEVMREVAWVIFDEIHYMRDSERGVVWEETIILLPDNVHYVFLSATIPNARQFAEWICHLHKQPCHVIYTDYRPTPLQHYIFPAGGDGLHLVVDENGDFREDNFNTAMQVLRDAGDLAKGDQKGRKGGTKGPSNVFKIVKMIMERNFQPVIIFSFSKKDCEAYALQMTKLDFNTDEEKKMVEEVFSNAIDCLSDEDKKLPQVEHVLPLLKRGIGIHHGGLLPILKETIEILFSEGLIKALFATETFAMGINMPARTVLFTNARKFDGKDFRWISSGEYIQMSGRAGRRGMDDRGIVILMVDEKMSPTIGKQLLKGSADPLNSAFHLTYNMVLNLLRVEEINPEYMLEKSFYQFQHYRAIPGVVEKVKNSEEQYNKIVIPNEESVVIYYKIRQQLAKLGKEIEEYIHKPKYCLPFLQPGRLVKVKNEGDDFGWGVVVNFSKKSNVKPNSGELDPLYVVEVLLRCSKESLKNSATEAAKPAKPDEKGEMQVVPVLVHLLSAISSVRLYIPKDLRPVDNRQSVLKSIQEVQKRFPDGIPLLDPIDDMGIQDQGLKKVIQKVEAFEHRMYSHPLHNDPNLETVYTLCEKKAQIAIDIKSAKRELKKARTVLQMDELKCRKRVLRRLGFATSSDVIEMKGRVACEISSADELLLTEMMFNGLFNDLSAEQATALLSCFVFQENSSEMPKLTEQLAGPLRQMQECAKRIAKVSAEAKLEIDEETYLSSFKPHLMDVVYTWATGATFAHICKMTDVFEGSIIRCMRRLEELLRQMCQAAKAIGNTELENKFAEGITKIKRDIVFAASLYL
As for B3, the “Difference (log2), PP1 vs untreated” value in assay [1] (setting [2]) is given as -3.184 log2. The “Difference (log2), untreated vs GFP” value in the assay with GFP-14-3-3β (setting [3]) stood at 4.62 log2.

B4: SRSF10 (protein, UniProt O75494 1-262, looked up)
Serine/arginine-rich splicing …: MSRYLRPPNTSLFVRNVADDTRSEDLRREFGRYGPIVDVYVPLDFYTRRPRGFAYVQFEDVRDAEDALHNLDRKWICGRQIEIQFAQGDRKTPNQMKAKEGRNVYSSSRYDDYDRYRRSRSRSYERRRSRSRSFDYNYRRSYSPRNSRPTGRPRRSRSHSDNDRFKHRNRSFSRSKSNSRSRSKSQPKKEMKAKSRSRSASHTKTRGTSKTDSKTHYKSGSRYEKESRKKEPPRSKSQSRSQSRSRSKSRSRSWTSPKSSGH
Regarding B4, the “Difference (log2), PP1 vs untreated” value in assay [1] (setting [2]) is -2.973 log2. In addition, the “Difference (log2), untreated vs GFP” value with GFP-14-3-3β (setting [3]) is reported as 3.797 log2.

B5: NXF1 (protein, UniProt Q9UBU9 2-619, looked up)
Nuclear RNA export factor 1: ADEGKSYSEHDDERVNFPQRKKKGRGPFRWKYGEGNRRSGRGGSGIRSSRLEEDDGDVAMSDAQDGPRVRYNPYTTRPNRRGDTWHDRDRIHVTVRRDRAPPERGGAGTSQDGTSKNWFKITIPYGRKYDKAWLLSMIQSKCSVPFTPIEFHYENTRAQFFVEDASTASALKAVNYKILDRENRRISIIINSSAPPHTILNELKPEQVEQLKLIMSKRYDGSQQALDLKGLRSDPDLVAQNIDVVLNRRSCMAATLRIIEENIPELLSLNLSNNRLYRLDDMSSIVQKAPNLKILNLSGNELKSERELDKIKGLKLEELWLDGNSLCDTFRDQSTYISAIRERFPKLLRLDGHELPPPIAFDVEAPTTLPPCKGSYFGTENLKSLVLHFLQQYYAIYDSGDRQGLLDAYHDGACCSLSIPFIPQNPARSSLAEYFKDSRNVKKLKDPTLRFRLLKHTRLNVVAFLNELPKTQHDVNSFVVDISAQTSTLLCFSVNGVFKEVDGKSRDSLRAFTRTFIAVPASNSGLCIVNDELFVRNASSEEIQRAFAMPAPTPSSSPVPTLSPEQQEMLQAFSTQSGMNLEWSQKCLQDNNWDYTRSAQAFTHLKAKGEIPEVAFMK
For B5, the “Difference (log2), PP1 vs untreated” value in assay [1] (log2 difference, label-free quantification) stood at 1.555. Moreover, the “Difference (log2), untreated vs GFP” value in the assay with GFP-14-3-3β (log2 difference, pairwise comparison untreated vs GFP, label-free quantification) amounted to 3.395.

B6: ARHGEF7 (protein, UniProt Q14155 1-803, looked up)
Rho guanine nucleotide …: MNSAEQTVTWLITLGVLESPKKTISDPEGFLQASLKDGVVLCRLLERLLPGTIEKVYPEPRSESECLSNIREFLRGCGASLRLELLFPPSQPPQHLVTTILLSASTFDANDLYQGQNFNKVLSSLVTLNKVTADIGLGSDSVCARPSSHRIKSFDSLGSQSLHTRTSKLFQGQYRSLDMTDNSNNQLVVRAKFNFQQTNEDELSFSKGDVIHVTRVEEGGWWEGTLNGRTGWFPSNYVREVKASEKPVSPKSGTLKSPPKGFDTTAINKSYYNVVLQNILETENEYSKELQTVLSTYLRPLQTSEKLSSANISYLMGNLEEICSFQQMLVQSLEECTKLPEAQQRVGGCFLNLMPQMKTLYLTYCANHPSAVNVLTEHSEELGEFMETKGASSPGILVLTTGLSKPFMRLDKYPTLLKELERHMEDYHTDRQDIQKSMAAFKNLSAQCQEVRKRKELELQILTEAIRNWEGDDIKTLGNVTYMSQVLIQCAGSEEKNERYLLLFPNVLLMLSASPRMSGFIYQGKLPTTGMTITKLEDSENHRNAFEISGSMIERILVSCNNQQDLQEWVEHLQKQTKVTSVGNPTIKPHSVPSHTLPSHPVTPSSKHADSKPAPLTPAYHTLPHPSHHGTPHTTINWGPLEPPKTPKPWSLSCLRPAPPLRPSAALCYKEDLSKSPKTMKKLLPKRKPERKPSDEEFASRKSTAALEEDAQILKVIEAYCTSAKTRQTLNSTWQGTDLMHNHVLADDDQPSLDSLGRRSSLSRLEPSDLSEDSDYDSIWTAHSYRMGSTSRKSCCSYISHQN
With B6, the “Difference (log2), PP1 vs untreated” value in assay [1] (setting [2]) is reported as -3.042 log2. For the same molecule, the “Difference (log2), untreated vs GFP” value in the assay on GFP-14-3-3β (setting [3]) was 2.997 log2.

B7: ZCCHC8 (protein, UniProt Q6NZY4 2-707, looked up)
Zinc finger CCHC …: AAEVYFGDLELFEPFDHPEESIPKPVHTRFKDDDGDEEDENGVGDAELRERLRQCEETIEQLRAENQELKRKLNILTRPSGILVNDTKLDGPILQILFMNNAISKQYHQEIEEFVSNLVKRFEEQQKNDVEKTSFNLLPQPSSIVLEEDHKVEESCAIKNNKEAFSVVGSVLYFTNFCLDKLGQPLLNENPQLSEGWEIPKYHQVFSHIVSLEGQEIQVKAKRPKPHCFNCGSEEHQMKDCPMPRNAARISEKRKEYMDACGEANNQNFQQRYHAEEVEERFGRFKPGVISEELQDALGVTDKSLPPFIYRMRQLGYPPGWLKEAELENSGLALYDGKDGTDGETEVGEIQQNKSVTYDLSKLVNYPGFNISTPRGIPDEWRIFGSIPMQACQQKDVFANYLTSNFQAPGVKSGNKRSSSHSSPGSPKKQKNESNSAGSPADMELDSDMEVPHGSQSSESFQFQPPLPPDTPPLPRGTPPPVFTPPLPKGTPPLTPSDSPQTRTASGAVDEDALTLEELEEQQRRIWAALEQAESVNSDSDVPVDTPLTGNSVASSPCPNELDLPVPEGKTSEKQTLDEPEVPEIFTKKSEAGHASSPDSEVTSLCQKEKAELAPVNTEGALLDNGSVVPNCDISNGGSQKLFPADTSPSTATKIHSPIPDMSKFATGITPFEFENMAESTGMYLRIRSLLKNSPRNQQKNKKASE
On to B7, for which the “Difference (log2), PP1 vs untreated” value in assay [1] (setting [2]) was -3.239 log2. The “Difference (log2), untreated vs GFP” value in the assay on GFP-14-3-3β (setting [3]) is on record as 4.409 log2.

B8: TFE3 (protein, UniProt P19532 1-575, looked up)
Transcription factor E3: MSHAAEPARDGVEASAEGPRAVFVLLEERRPADSAQLLSLNSLLPESGIVADIELENVLDPDSFYELKSQPLPLRSSLPISLQATPATPATLSASSSAGGSRTPAMSSSSSSRVLLRQQLMRAQAQEQERRERREQAAAAPFPSPAPASPAISVVGVSAGGHTLSRPPPAQVPREVLKVQTHLENPTRYHLQQARRQQVKQYLSTTLGPKLASQALTPPPGPASAQPLPAPEAAHTTGPTGSAPNSPMALLTIGSSSEKEIDDVIDEIISLESSYNDEMLSYLPGGTTGLQLPSTLPVSGNLLDVYSSQGVATPAITVSNSCPAELPNIKREISETEAKALLKERQKKDNHNLIERRRRFNINDRIKELGTLIPKSSDPEMRWNKGTILKASVDYIRKLQKEQQRSKDLESRQRSLEQANRSLQLRIQELELQAQIHGLPVPPTPGLLSLATTSASDSLKPEQLDIEEEGRPGAATFHVGGGPAQNAPHQQPPAPPSDALLDLHFPSDHLGDLGDPFHLGLEDILMEEEEGVVGGLSGGALSPLRAASDPLLSSVSPAVSKASSRRSSFSMEEES
Take B8: in assay [1] (setting [2]), the “Difference (log2), PP1 vs untreated” value is on record as -2.839 log2. Further, the “Difference (log2), untreated vs GFP” value in the assay with GFP-14-3-3β (setting [3]) is 3.895 log2.
